Assay results published in the nanobody polyreactivity screen of Harvey et al. (2022).

Assay: yeast display, Sf9 membrane polyspecificity reagent, FACS + sequencing; frameworks hold sequencing errors
How it was run: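 A synthetic nanobody library was expressed on Saccharomyces cerevisiae BJ5465 by galactose induction for 36–48 hours. The library was stained for 1 hour at 4 °C with 10% biotinylated, detergent-solubilized Sf9 membrane reagent and enriched with streptavidin microbeads before FACS. Low and high (top ~1%) gates were set on anti-HA fluorescence for expression and streptavidin fluorescence for reagent binding, and each polyreactivity label reflects the gate of origin.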

| Sequence | polyreactivity (PSR sort gate) |
| --- | --- |
| QVQLVESGGGLVQAGGSLRLSCAASGSTFGPYVMRWYRQAPGKERELVAGISSSGGSTYYADSVKGRFTISRDNAKNTVYLQMNSLKPEDTAVYYCAAVWTTGWIDSYTAWYSYEYWGQGTQVTVSS | low polyreactivity |
| QVQLVESVGGLVQAGGSLRLSCAASGIIFRANAMGWYRQAPGKERELVAAISGRGSSTTYADSVKGRFTISRDNAKNTVYLQMNSLKPEDTAVYYCAAGYGKWFATWRSQKYDYWGQGTQVTVSS | high polyreactivity |
| QVQLVESGGGLVQAGGSLLLSCAASGGTFRVYAMGSYRQAPVKERELVAAITWRGGRTYYGDSVKGRFTISRDHAKNTVYLQMKRVKPEDTAVYFCAADRYGDLYDYWGQGTQVTVSS | high polyreactivity |
| QVQLVESGGGLVQAGGSLRLSCAASGFIFVSYAMGWYRQAPGKERELVAAIDRIGGITYYADSVKGRFTIARDIAKNTVYLQMNSLKPEDTAVYYCAAAARYATVRVGREYYWGQGTQVTVSS | low polyreactivity |
| QVQLVESGGGLVQAGGSLRLSCAASGSTFYNYAMGWYRQAPGKEREFVAAITRSGGSTYYADSVKGRFSISRDNAKNTVYLQMNSLKPEDTAVYYCNAGGHWYYHRYRGYYWGQGTQVTVSS | high polyreactivity |
| QVQLVESGGGLVQAGGSLSLSCAASGRTFWYKDMGWYRQAPGKERELVAVISSGAITFYADSVKGRFTISRDNAKNTVYLQMNSLNPEDTAVYYCAARSYLSLIDYWGQGTLVTVSS | high polyreactivity |
| QVQLVESGGGLVQAGGSLRLSCAASGRTFVYYAMGWYRQAPGKERELVAAISSRGGSTYYADSVKGRFTISRDYAKNTVYLQMNSLKPEDTAVYYCAARARRRYYYWGQGTQVTVSA | high polyreactivity |
| QVQLVESGGVLVQAGGSLRLSCAASGSTIPYNTMGWYRQAPRKERELVAAITRTSYADTVKGRFTISRDNAKNTVYLEMISLKREDTAVYYCAADKSFYYYLFGYDYWGQGTQVTVSS | low polyreactivity |
| QVQLVESGGGLVQAGGSLRLSCAASGRTFFHNPMGWYRQAPGKERELVAAISSGGGTYADSVKGRFTISRDNAKNTVYLQINSLKPEDTAVYYCAATLYNTEDDYWGQGTQVTVSS | low polyreactivity |
| QVQIVESGGGLVQAGGSLRLSCAASGSTFSYNAMGWYRQAPGKERELVATISNTDSTNYADSVKGRFTISRDNAKNTLYLQMNSLKPEDTSVYSCAAVVSTVDGMEYWGQGTQVNVSS | low polyreactivity |
| QVQLVESGGGLVQAGGSLRLSCAASGFTFAGYAMGWSRQAPGKERELVAGIRSSGARTYYADSVKGRFTISRDNAKNTVYLQMNSLKPEDTAVDYCAKTDGFYRGYGYWGQGTQVTVSS | low polyreactivity |
| QVQLVESGVGLVQAGGSLRLICAASGFILGQNAMGWYRQAPGKEREFVADISWSGDSTYYADSVKGRFTISRDNAKNTVYFQMNSLKPEDTAVYYCAADPYYNWGYYYWGQGTQVTVSS | low polyreactivity |
| QVQLVESGGGLVQAGGSLRLSCAASGSIFVYNAMGWYRQAPGKERELVARITGRGGRTYYADSVKGRFTISRDNAKNTVYLQMNSLKPEDTAVYYCAAAKYGDYRGSPYKYGYWGQGTQVTVSS | high polyreactivity |
| QVTLVESGGGLVQAGGSLRLSCAASGSIRGYALGWSRQPPGKDRALVAAMSWRGGSTYYADSVKGRFTISRDNAKNTVYLQMNSLKPEETAVYYCAVEYVYWLSWYFQYDYWGQGTQVTVSS | low polyreactivity |
| QVQLVESGGGLVQAGGSLRLSCAASGSTFRFYAMGWYRQAPGKERELVAAITWRGGRTYYADSVKGRFTISRDNAKNTVYLQMNRLKPEDTAVYYCAGGRGWQSQIPAKYYYWGQGTQVTVSS | high polyreactivity |
| QVQLVESGGGLVQAGGSLRLSCAASGSIFTPNAMGGYRQAPGKERELVAAISSSSDRTYYADSVKGRFTISRDNAKNTVYLQMNSLKPEDTAVYYCAAYAQQRYYWGQGTQVTVSS | high polyreactivity |
| QVHLVESAGCLVQAAGSLRLSCSASGFTFGYNTMGWFRQPPGKERELVAAISYGGGRTYYADSVKWRFTISRDNAKNTVYLQMNSLKPEDSAVYYCAAAPIPSLTYDYWGQGTQVTVSS | low polyreactivity |
| QVQLVESGGGLVQAGGSLRLSCAASGITFDKNTMGWYRQAPGKERELVAAISARGGSTYYADSVKGRFTISRDNAKNTVYLQMNSLKPEDTAVYSCAADYSARYGYWGQGTQVNVSS | high polyreactivity |
| QVQLVESGGGLVQAGGSLRLSCAASGRIFSRYAMGWYRQAPGKERELVAAITGRGGSTYYADSVKGRFTISRDNAKNTVYLQMNSLKPVDTAVYYCAVANRVTPLFLRYDYWGQGTQVTVSS | high polyreactivity |
| QVQLVESGGGLVQAGGSLRLSCAASGSTFRYYTMGWYRQAPGKERELVAAISSSGTRTYYADSVKGRFTISRDYAKNTVYLQMNSLKPEDTAVYYCDTVFLRSDGWRRSNMDYWGQGTQVTVSS | high polyreactivity |
| QVQLVESGGGLVQAGGSLRLSCAASGFTFYPYAMGWYRQAPGKERELVASITSAGGTNYADSVKGRFTISRDNAKNTVYLQMNSLKPEDTAVYYCAAKYRSRGPDYYFKSDYWGQGTQVTVSS | low polyreactivity |
| QVQLVESGGGLVQAGRSLRLSCAASGRNFTYYAMGWDRQAPGKERELVAAISGSAGSTYYADSVKGRFTISRDNAKNTVYLQMNSLKPEDTAVYYCNAVLVRQRDRGGYWGQGTQVTVSS | high polyreactivity |

| Sequence | polyreactivity (PSR sort gate) |
| --- | --- |
| QVQLVESGGGLVQAGGSLRLSCAASGITFQYYAMGWYRQAPGKERELGAAITSSGVSTYYADSVKGRFTISRDNAKNTVYLQMNSLKPEDTAVYYCNTVVRGWSSSAYVYWGQGTQVTVSS | low polyreactivity |
| QVQLVESGGGLVQAGGSLRLSCAASGRTFNYYAMGWYRQAPGKERELVAAISWSGTPTYYADSVKGRFTISRDHAKNTVYLQMNSLKPEDTAVYYCAAYLVSYPRGNYIRYDYWGQGTQVTVSS | low polyreactivity |
| QVQLVESGGGLVQAGGSLRLSCAASGSTFSRYTMGRYRQAPGKERELVAAIRRSGASTYYADSVKGRFTISRDNAKNTVYLQMNSLKPEDTAVYYFAVGRYRYGYWGQGTQVTVSS | high polyreactivity |
| QVQLVESGGGLVQAGGSLRLSCAASGFTLGGYAMGWYRQAPGKEREFVAAISGRGGRTYYADSVKGRFTISRDNAKNTVYLQMNSLKPEDTAVYYCAAPTNHWTRLSGDYWGQGTQVTVSS | high polyreactivity |
| QVQLVESGGGLVQAGGSLRLSCAASGSIFSRYAMGWYRQAPGKEMELVAAISSRGGSTSYADSVKGRFTISRDYAKNTVYLQMNSLQPEDTAVYYCGRVYYAGPRLYRDFGFDYWGQGTQVTVSS | high polyreactivity |
| QVQLVESGGGLVQAGGCLRLSCAASGSIFCVYVMGWYRQEPVKERELVAAITRGASTNYADSVKGRFTISRDNAKNTVYLQMNSLKPEDTAVYYCAARQVSVSGHQYGYWGQGTQVTVSS | low polyreactivity |
| QVQLVESGGGLVQAGGSLRLSCAASGFTFFSYAMGWYRQAPGKERELVAAISWSGGTTYYADSVKGRFTISRDNAKNTDYLQMNSLKPEDTAVYYCAAGPFSYSHYGRKFYYWGQGTQVTVSS | high polyreactivity |
| QVQLVESGGGVVQAGGSLRISCAATGFIFRWYAMGWYIQAPGKERELVASINWSGSRTNYADPVKGRFTISRDNAKNTVYLQMNSLKPEDTAVYYCATYGTTSGYDSWGQGTQVTVSS | high polyreactivity |
| QVQLVESGGGLVQAGGSLRLSCAASGFTFVYNAMGWYRQAPGKERELVAAITFSGGSTYYADSVNGRFTISRDNAKNTVYLQMNSLKPEDTAVYYCATDYPGVFVLRRSHPYDYWGQGTQVTVSS | low polyreactivity |
| QVQLVESGGGLVQAGRSLRLSCAASGITFESYAMGWYRQAPGKEREFVAAISRSSGSTYYADSVKGRFTISRDNAKNTVYLQMNSLKPEDTAVYYCATRSFRDDGFGRYYYWGQGTLVTVSS | high polyreactivity |
| QVQLVESRGGLVQAGGSLRLSCASSGFTFSINAMGWYRQAPGNERELVASITWSGGRTYYADSVKGRFTISRDNAKNTVYLQMNSLKPEDTAVYYCAARSYGTSTYDYWGQGTQVTVSS | high polyreactivity |
| QVQLVESGGGLVQAGGSLRLSCAASGYNFYRYAMGWYRQAPGKEMELVATIRSGGSTNYADSVKGRFTISRDNAKNTVYLQMNSLKPEDTAVYYCAKVRGWYDPYTYGYSEYGYWGQGTQVTVSS | low polyreactivity |
| QVQLVESGGGLVQAGGSLRLSCAASGFTFSHYAMGWYRQAPGKERELVAAISRRGSSTYYADSVKGRFTISRDNAKNTVYLQMNSLKPEDTAVYYCNVERLTGVWYYQRPSQDGYWGQGTQVTVSS | high polyreactivity |
| QVQLVESGAGLVQAGGSLRLSCAAYGRIFGIYALGWYRQAPGKEREFVAAISDRSGSRTYYADSVKGRFTISRDNAKNTVYLQINSLKPEDTAVYYCAAGILRWKDRWFEYWGQGTQVTVSS | high polyreactivity |
| QVQLVESGGGLFQPGGILRLSFAASGSTIIDYAMGWYRQEPWKERELVASITWSGGSTYYADSVKGRFTFSRDNAKNTVYLQINCLKPVDSAVYYCNSDVNVGLEVLIVYEYDYWGQGTQVTVSS | low polyreactivity |
| QVQLVESGGGLVQAGGSLRLSCAASGRTFSLYAMGWYRQAPGKERELVAGIDWSGGSTYYADSVKGRFTISRDNAKNTVYLQMNSLKPEDTAVYYCAAKYVWVSKASKDYDYWGQGTQVTVSS | low polyreactivity |
| QVQLVESGGGLVQAGGSLRLSCAASGFTFPRYAMGWYRQAPGKERELVAAITTSVGNTYYADSVKGRFTISRDNAKNTVYLQMNSLKPEDTAVYYCSTIYDHFDYWGQGTQVTVSS | low polyreactivity |
| QVQLLESGGGLVQAGGSLRLICAASGLIFGPYTMGWYRQAPGKERELVAAITRSGGRTYYADSVKGRFTISRDNAKNTVYLQMNRLKPEDTAVYYCAAYGGQSWDYDYWGQGTQVTVSS | high polyreactivity |
| QVQLVESGGGLVQAGGSLRLSCAASGRIFYFYAMGWYRQAPGKEREMVASISYSGGNTYYADSVKGRFTISRDNAKNTVYLQMNSLKPEDTAVYYCNVLPNTGARGYYYWGQGTQVTVSS | low polyreactivity |
| QVQLVESGGGLVQAGGSLRLSCAASGSIFLLYYMGWYRQAPGKERELVAANTWSGGSTYYADSVKGRFTISRDNAKNSVYLQMNSLKPEDTAVYYFAADEPYPTAYEYWGQGTQVTLSS | low polyreactivity |
| QVQLVESGGGIVQAGGSLRLSCAASGSSHGYAMGWYRQAPGKERELVAAISLNTGSTYYADSVNGRFTISRDNAKNTVYLQMNSLKPEDTAVYFCNADDYTYATYEYDYWGQGTQVTVSS | low polyreactivity |
